From patent US7119174B2, “Diagnosis and treatment of AUR1 and/or AUR2 related disorders” (Sugen, Inc., priority 1995, dated 2006)
Substitutions are numbered along the chain they refer to. In names and notes the source's numbering stands.

B1: HA-tagged activated human AUR2 mutant T288D (protein)
chain: MDRSKENCISGPVKATAPVGGPKRVLVTQQFPCQNPLPVNSGQAQRVLCPSNSSQRVPLQAQKLVSSHKPVQNQKQKQLQATSVPHPVSRPLNNTQKSKQPLPSAPENNPEEELASKQKNEESKKRQWALEDFEIGRPLGKGKFGNVYLAREKQSKFILALKVLFKAQLEKAGVEHQLRREVEIQSHLRHPNILRLYGYFHDATRVYLILEYAPLGTVYRELQKLSKFDEQRTATYITELANALSYCHSKRVIHRDIKPENLLLGSAGELKIADFGWSVHAPSSRRTDLCGTLDYLPPEMIEGRMHDEKVDLWSLGVLCYEFLVGKPPFEANTYQETYKRISRVEFTFPDFVTEGARDLISRLLKHNPSQRPMLREVLEHPWITANSSKPSNCQNKESASKQSYPYDVPDYAS
B2: human AUR1 (AURORA ONE), endogenous protein in SW480 cell lysate (protein)
chain: MAQKENSYPWPYGRQTAPSGLSTLPQRVLRKEPVTPSALVLMSRSNVQPTAAPGQKVMENSSGTPDILTRHFTIDDFEIGRPLGKGKFGNVYLAREKKSHFIVALKVLFKSQIEKEGVEHQLRREIEIQAHLHHPNILRLYNYFYDRRRIYLILEYAPRGELYKELQKSCTFDEQRTATIMEELADALMYCHGKKVIHRDIKPENLLLGLKGELKIADFGWSVHAPSLRRKTMCGTLDYLPPEMIEGRMHNEKVDLWCIGVLCYELLVGNPPFESASHNETYRRIVKVDLKFPASVPTGAQDLISKLLRHNPSERLPLAQVSAHPWVRANSRRVLPPSALQSVA
B3: human AUR2 (AURORA TWO), endogenous protein in lysates of human tumors and tumor cell lines (protein)
chain: MDRSKENCISGPVKATAPVGGPKRVLVTQQFPCQNPLPVNSGQAQRVLCPSNSSQRVPLQAQKLVSSHKPVQNQKQKQLQATSVPHPVSRPLNNTQKSKQPLPSAPENNPEEELASKQKNEESKKRQWALEDFEIGRPLGKGKFGNVYLAREKQSKFILALKVLFKAQLEKAGVEHQLRREVEIQSHLRHPNILRLYGYFHDATRVYLILEYAPLGTVYRELQKLSKFDEQRTATYITELANALSYCHSKRVIHRDIKPENLLLGSAGELKIADFGWSVHAPSSRRTTLCGTLDYLPPEMIEGRMHDEKVDLWSLGVLCYEFLVGKPPFEANTYQETYKRISRVEFTFPDFVTEGARDLISRLLKHNPSQRPMLREVLEHPWITANSSKPSNCQNKESASKQS
B4: HA-tagged kinase inactive human AUR2 mutant K162M (protein)
chain: B1 chain with K162M, D288T
B5: HA-tagged wild-type human AUR2 (entire coding domain with C-terminal HA epitope) (protein)
chain: B1 chain with D288T

Key:
[1] = test system: AUR2; assay: AUR2 protein expression by immunoblot after antisense oligo treatment of H1299 cells; format: cell-based; conditions: human tumor cell line H1299, lipofectin, each oligo 1 μM then 200 nM, harvested ~40 hours after initial treatment
Experimental: Human H1299 cells were seeded at ˜40–50% confluency in a 6 well plate (Falcon). The following day lipofectin (Gibco) and oligo(s) were mixed with OptiMEM (Gibco) such that the final concentration of lipofectin is 100 μg/mL and the final concentration of each oligo is 1 μM in a volume of 200 μL. The lipofectin/oligo/OptiMEM mixture was incubated at room temperature (20–25° C.) for 15 minutes, 800 μL of OptiMEM was added to the lipofectin/oligo/OptiMEM mixture, and mixed gently. The growth medium was removed from the H1299 cells, which were at ˜80% confluency. Cells were washed once with OptiMEM. The OptiMEM was aspirated, the lipofectin/oligo/OptiMEM mixture was added, cultures incubated at 37° C. for 4 hours. The lipofectin/oligo/OptiMEM mixture was removed and replaced with normal growth medium containing the antisense oligo(s) at a concentration of 200 nM. The plates were returned to the 37° C. incubator for 16–20 hours after which the growth medium was removed from the cells and they were washed once with OptiMEM. The OptiMEM was again aspirated and the lipofectin/oligo/OptiMEM mixture was added (prepared as described above) and the plates again were incubated at 37° C. for 4 hours. The lipofectin/oligo/OptiMEM mixture was removed again and replaced with normal growth medium containing the antisense oligo(s) at a concentration of 200 nM. The platea were returned to the 37° C. incubator for 16–20 hours. The cells were harvested (˜40 hours after initial treatment) and analyzed for aur2 mRNA by northern blot or AUR2 protein expression by immunoblot.

[2] = molecular target: myelin basic protein (Sigma)
[3] = molecular target: alpha-casein

Molecule | AUR2 protein expression [1] | in vitro kinase assay on protein from stable NIH3T3 lines [2] | in vitro kinase assay on protein from stable Rat1 lines [3] | further results
CAGGGCAGAGTGGTCACTTTC (listed as DNA, chemistry not given here) [SEQ ID NO:30, antisense oligonucleotide to nucleotides 1743–1763 of aur2] | significantly down regulated | – | – | –
TGCAGTCGAACCTTGCCTCCA (listed as DNA, chemistry not given here) [SEQ ID NO:32, antisense oligonucleotide to nucleotides 1654–1674 of aur2] | significantly down regulated | – | – | –
SEQ ID NO:16: printed in b341 as antisense oligonucleotide targeting human aur2 mRNA; probably misprint for one of SEQ ID NO:30-32 (antisense GARTTYGGNGARGTNTTYYTNGC; listed as DNA, chemistry not fully specified) | significantly down regulate | – | – | –
SEQ ID NO:17: printed in b341 as antisense oligonucleotide targeting human aur2 mRNA; probably misprint for one of SEQ ID NO:30-32 (antisense AGNACNCCRAANGCCCACACRTC; listed as DNA, chemistry not fully specified) | significantly down regulate | – | – | –
CGTCCGCCACTCCGACCAGCC (listed as DNA, chemistry not given here) [SEQ ID NO:31, antisense oligonucleotide to nucleotides 42–62 of aur2] | significantly down regulated | – | – | –
B1 | – | the activated AUR2 mutant (T288D) had marked activity on this artificial substrate | the wild-type and activated AUR2 (T288D) proteins had increased activity on this artificial substrate | –
B2 | – | – | – | in vitro kinase assay, phosphorylation of myelin basic protein [2]: AUR1 and AUR2 immunocomplexes were able to phosphorylate myelin basic protein
B3 | – | – | – | in vitro kinase assay, phosphorylation of myelin basic protein [2]: AUR1 and AUR2 immunocomplexes were able to phosphorylate myelin basic protein
B4 | – | The wild-type and kinase inactive AUR2 mutant (K162M) were unable to phosphorylate myelin basic protein in vitro | The kinase inactive AUR2 mutant (K162M) was unable to phosphorylate-casein over the levels observed in the vector control cell line in vitro | –
B5 | – | The wild-type and kinase inactive AUR2 mutant (K162M) were unable to phosphorylate myelin basic protein in vitro | the wild-type and activated AUR2 (T288D) proteins had increased activity on this artificial substrate | –
